Assay results: patent US20160145322A1 (CRUCELL HOLLAND B V, published 2016)

T1: Sym-1788 (RSV-G type B central region peptide 145-201) (Respiratory syncytial virus type B, N-terminal biotin)
T1 construct: Synthetic peptide
T1 peptide: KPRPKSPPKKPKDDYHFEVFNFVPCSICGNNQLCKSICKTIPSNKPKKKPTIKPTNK

T2: Sym-1706 (RSV G central conserved domain (CCD) peptide, type A 145-184) (Respiratory syncytial virus type A, N-terminal biotin)
T2 construct: Synthetic peptide, C-terminally truncated against Sym-1705
T2 peptide: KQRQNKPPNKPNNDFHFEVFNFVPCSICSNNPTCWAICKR

T3: Sym-1705 (RSV-G type A central region peptide 145-201) (Respiratory syncytial virus type A, not fully specified; N-terminal biotin)
T3 construct: Synthetic peptide
T3 peptide: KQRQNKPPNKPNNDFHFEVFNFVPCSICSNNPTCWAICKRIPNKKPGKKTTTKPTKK

T4: Sym-1789 (RSV-G type B central region peptide 145-184) (Respiratory syncytial virus type B, N-terminal biotin)
T4 construct: Synthetic peptide, C-terminally truncated against Sym-1788
T4 peptide: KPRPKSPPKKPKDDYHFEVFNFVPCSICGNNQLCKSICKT

T5: Recombinant RSV attachment protein (G protein) corresponding to RSV B/B1 (Respiratory syncytial virus B/B1, UniProt O36633 65-299)
T5 construct: also called RSV Gb; Gb
T5 sequence: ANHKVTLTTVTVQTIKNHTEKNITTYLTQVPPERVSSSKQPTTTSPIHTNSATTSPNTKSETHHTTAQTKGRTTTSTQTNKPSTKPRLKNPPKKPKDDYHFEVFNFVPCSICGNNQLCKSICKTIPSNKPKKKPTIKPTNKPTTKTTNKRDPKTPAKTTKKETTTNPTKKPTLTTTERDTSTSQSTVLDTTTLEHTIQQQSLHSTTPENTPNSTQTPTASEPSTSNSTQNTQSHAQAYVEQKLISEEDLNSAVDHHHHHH

T6: G protein of RSV A/Long (ATCC Cat. No. VR-26), on virus (Respiratory syncytial virus A/Long, UniProt P20895 1-298)
T6 sequence (looked up): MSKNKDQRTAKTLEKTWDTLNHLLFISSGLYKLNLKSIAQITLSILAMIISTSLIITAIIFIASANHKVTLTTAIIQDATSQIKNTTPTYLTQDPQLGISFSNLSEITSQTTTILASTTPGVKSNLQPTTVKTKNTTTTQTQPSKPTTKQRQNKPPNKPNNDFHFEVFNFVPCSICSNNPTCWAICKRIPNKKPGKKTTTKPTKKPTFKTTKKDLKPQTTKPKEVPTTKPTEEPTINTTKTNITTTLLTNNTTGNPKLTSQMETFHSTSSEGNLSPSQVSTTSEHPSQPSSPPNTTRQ

B1: CB065.1 (antibody, V domains shown)
VH: QVQLVESGGGVVQPGRSLRLSCAASGFTFSNYGMHWVRQAPGKGLEWVTIISYDESTTLYADSVKGRFTISRDNSKNTVYLQMNSLRPEDTAVYYCARDHFDPSGYFWYFDLWGRGTLVTVSS
VL: DIVMTQSPLSLSVTPGQPASISCKSSQSLLQRDGKTYLYWYLQKPGQSPQLLIYEVSSRFSGVPDRFSGSGSGTDFTLKISRVEAEDVGVYYCMQGIRLPRTFGQGTKVEIK
notes: Tested as human IgG from the pCP9-kappa vector
B2: CB030.1 (antibody, V domains shown)
VH: QVQLVQSGAEMKRPGSSVKVSCKASGGTFSTFAINWVRQAPGQGFEWMGGVIPGFDSANYAQKFQGRLTMSADESTSTVYMELSSLRSDDTAVYYCAGNSGYCSGDSCAPNWGPGTLVTVSS
VL: DIVMTQSPLSLPVTPGEPASISCRSSQSLVHSNGYSYLDWYLQKPGQSPQLLIYLGSNRPSGVPDRFSGSGSGTDFTLKISRVEAEDVGVYFCMQNLQTPTFGGGTKVEIK
notes: as for B1
B3: CB017.5L (antibody, V domains shown)
VH: QVQLVESGGGVVQPGRSLRLSCSASGFTFSVYAMHWVRQAPGQGLEWVAIIWYDGSNKYYADSVKGRFTISRDNSKETLYLQMNSLRVEDTAVYYCARDPIVGHTRDGLDVWGQGTTVTVSS
VL: SYELTQPPSVSVSPGQTARVTCSGDAMAEQYTYWYQQKPGQAPVLIIFKDTERPSGIPERFSGSSSGTTVTLTISGVQTEDEADYYCQSTDSSGTSWVFGGGTKLTVL
notes: Tested as human IgG from the pCP9-lambda vector
B4: CB028.1 (antibody, V domains shown)
VH: QVQLVQSGAEVKKPGASVQVSCKTSGYTFSSYGISWVRQAPGQGPEWMGWISTHIGTTNYAQKLQGRVTMTTDTSTTTAYMELRSLRSDDTAVYYCARDLAKWYCSGDTCFCSGGRCYSDHWGQGTLVTVSS
VL: DIQMTQSPSSLSASVGDRVTITCRASQSINDCLNWYQQKPGQAPKLLISAASNLQSGVPSRFSGSGSETDFTLTISSLQPEDFAAYYCQQSFSTPLTFGGGTKVEIK
notes: as for B1
B5: CB079.1 (antibody, V domains shown)
VH: EVQLVESGGDLVQPGGSLRLSCSASGFVFTSYSFHWVRQAPGKGLEYVSSVSADGGSTYYADSVRGRFLISRDNSKNTLSLQMSSLRPDDTALYYCVPQPSLLWFGDLRSWGQGTLVTVSS
VL: DIVMTQSPLSLPVTPGEPASISCRSSQSLLHSNGYNYLDWYLQKPGQSPQLLIYLSSNRASGVPDRFSGSGSGTDFTLKISRVEAEDIGIYYCMQSLQTLTFGQGTRLEIK
notes: as for B1

Key:
[1] = target: T1, Sym-1788 (RSV-G type B central region …); experiment: ELISA, biotinylated peptide on avidin plate
[2] = target: T2, Sym-1706 (RSV G central conserved …); experiment: ELISA, biotinylated peptide on avidin plate
[3] = target: T3, Sym-1705 (RSV-G type A central region …); experiment: ELISA, biotinylated peptide on avidin plate
[4] = target: T4, Sym-1789 (RSV-G type B central region …); experiment: ELISA, biotinylated peptide on avidin plate
[5] = target: G protein of RSV B/18537 (ATCC Cat. No. VR-1580), on virus (Respiratory syncytial virus B/18537); experiment: cell-based or functional assay
[6] = target: T5, Recombinant RSV attachment protein (G …); experiment: ELISA, coated recombinant protein
[7] = target: T1, Sym-1788 (RSV-G type B central region …); experiment: ELISA, antibody titrated on biotinylated peptide on avidin plate
[8] = target: T2, Sym-1706 (RSV G central conserved …); experiment: as above
[9] = target: T3, Sym-1705 (RSV-G type A central region …); experiment: as above
[10] = target: T4, Sym-1789 (RSV-G type B central region …); experiment: as above
[11] = target: T6, G protein of RSV A/Long (ATCC Cat. No. …); experiment: cell-based or functional assay
[12] = target: T1, Sym-1788 (RSV-G type B central region …); experiment: Octet Red384, streptavidin tips with biotinylated peptide
Method: (§1) Binding of the mAbs to the RSV G peptides was also determined using Streptavidin sensor tips on the Octet Red384 (ForteBio).

[13] = target: T2, Sym-1706 (RSV G central conserved …); experiment: as above
Method: as §1

[14] = target: T3, Sym-1705 (RSV-G type A central region …); experiment: as above
Method: as §1

[15] = target: T4, Sym-1789 (RSV-G type B central region …); experiment: as above
Method: as §1

Binder	binding result [1]	binding result [2]	binding result [3]	binding result [4]	Neutralization IC50 (ng/mL), plaque reduction assay, RSV B/18537 [5] [ng/mL]	binding result [6]	IC50 [7] [µg/mL]	IC50 [8] [µg/mL]	IC50 [9] [µg/mL]	IC50 [10] [µg/mL]	Neutralization IC50, plaque reduction assay, RSV A/Long [11] [ng/mL]	Binding (Octet) [RU] [12] [RU]	Binding (Octet) [RU] [13] [RU]	Binding (Octet) [RU] [14] [RU]	Binding (Octet) [RU] [15] [RU]
B1	binds	binds	binds	binds	5.1	binds	–	–	–	–	–	–	–	–	–
B2	–	–	–	–	18.3	binds	~0.02	~0.02	~0.02	~0.02	37	0.73	0.53	0.47	1.36
B3	–	–	–	–	3.8	–	–	~0.02	~0.02	–	3.5	–	-0.02	3.17	–
B4	binds	binds	binds	binds	16.3	binds	–	–	–	–	–	–	–	–	–
B5	binds	binds	binds	binds	4.4	binds	–	–	–	–	–	–	–	–	–
